We go through two molecules from patent US20160200782A1 (MOERAE MATRIX, published 2016).

Targets include Flt4(h) (human, UniProt P35916 800-1363, limits assumed); Fyn(h) (human, UniProt P06241 1-537, limits assumed); Lyn(h) (human, UniProt P07948 1-512, limits assumed); mTOR(h) (human, UniProt P42345 1362-2549); mTOR/FKBP12(h) (human, UniProt P42345 1362-2549; P62942 1-108); Pim-1(h) (human, UniProt P11309 1-313); PKCα(h) (human, UniProt P17252 1-672); PKCθ(h) (human, UniProt Q04759 1-706); CDK3/cyclinE(h) (human, UniProt Q00526 1-305; Q00526 1-305).

What all share (assay): cell-based or functional assay
The next experiment addresses T1, PKCµ(h) (human, UniProt Q15139 1-912, limits assumed).
T1 sequence (looked up): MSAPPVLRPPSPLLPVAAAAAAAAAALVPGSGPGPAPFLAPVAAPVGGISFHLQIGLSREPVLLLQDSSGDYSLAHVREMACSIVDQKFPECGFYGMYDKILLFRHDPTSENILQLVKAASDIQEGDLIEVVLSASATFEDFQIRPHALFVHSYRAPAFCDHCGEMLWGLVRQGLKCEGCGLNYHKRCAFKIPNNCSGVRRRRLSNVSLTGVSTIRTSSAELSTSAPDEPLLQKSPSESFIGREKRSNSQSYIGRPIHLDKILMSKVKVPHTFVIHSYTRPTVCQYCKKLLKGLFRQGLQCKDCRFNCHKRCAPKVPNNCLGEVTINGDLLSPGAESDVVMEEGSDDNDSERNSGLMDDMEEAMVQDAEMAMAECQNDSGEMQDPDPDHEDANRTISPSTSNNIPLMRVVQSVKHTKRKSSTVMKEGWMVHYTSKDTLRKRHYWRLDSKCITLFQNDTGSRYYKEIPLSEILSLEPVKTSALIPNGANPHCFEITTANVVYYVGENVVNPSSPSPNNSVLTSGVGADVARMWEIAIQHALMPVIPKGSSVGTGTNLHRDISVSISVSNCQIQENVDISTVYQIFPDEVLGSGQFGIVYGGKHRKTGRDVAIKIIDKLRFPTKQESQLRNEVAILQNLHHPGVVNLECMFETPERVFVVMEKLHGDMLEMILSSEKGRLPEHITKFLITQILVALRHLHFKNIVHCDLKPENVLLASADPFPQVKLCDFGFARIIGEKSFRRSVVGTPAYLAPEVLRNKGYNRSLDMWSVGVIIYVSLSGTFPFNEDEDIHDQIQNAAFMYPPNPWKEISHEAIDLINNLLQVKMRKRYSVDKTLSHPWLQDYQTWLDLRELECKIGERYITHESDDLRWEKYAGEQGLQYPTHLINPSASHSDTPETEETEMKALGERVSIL

The next experiment concerns the target T2, ULK2(h) (human, UniProt Q8IYT8 1-478, limits assumed).
T2 sequence (looked up): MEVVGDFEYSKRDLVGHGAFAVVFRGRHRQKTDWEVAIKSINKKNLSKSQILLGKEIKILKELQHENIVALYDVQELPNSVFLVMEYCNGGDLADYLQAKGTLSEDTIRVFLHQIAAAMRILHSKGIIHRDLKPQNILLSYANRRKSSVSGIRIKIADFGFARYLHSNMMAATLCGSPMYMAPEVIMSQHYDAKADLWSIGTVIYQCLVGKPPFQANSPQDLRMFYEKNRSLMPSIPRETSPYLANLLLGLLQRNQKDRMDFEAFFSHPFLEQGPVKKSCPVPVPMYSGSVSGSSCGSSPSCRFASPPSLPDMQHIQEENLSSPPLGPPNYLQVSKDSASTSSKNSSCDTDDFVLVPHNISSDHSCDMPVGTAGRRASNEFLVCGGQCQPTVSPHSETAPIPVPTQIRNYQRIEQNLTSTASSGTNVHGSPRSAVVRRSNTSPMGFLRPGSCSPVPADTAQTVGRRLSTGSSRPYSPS

The next experiment deals with T3, CHK1(h) (human, UniProt O14757 1-476).
T3 sequence (looked up): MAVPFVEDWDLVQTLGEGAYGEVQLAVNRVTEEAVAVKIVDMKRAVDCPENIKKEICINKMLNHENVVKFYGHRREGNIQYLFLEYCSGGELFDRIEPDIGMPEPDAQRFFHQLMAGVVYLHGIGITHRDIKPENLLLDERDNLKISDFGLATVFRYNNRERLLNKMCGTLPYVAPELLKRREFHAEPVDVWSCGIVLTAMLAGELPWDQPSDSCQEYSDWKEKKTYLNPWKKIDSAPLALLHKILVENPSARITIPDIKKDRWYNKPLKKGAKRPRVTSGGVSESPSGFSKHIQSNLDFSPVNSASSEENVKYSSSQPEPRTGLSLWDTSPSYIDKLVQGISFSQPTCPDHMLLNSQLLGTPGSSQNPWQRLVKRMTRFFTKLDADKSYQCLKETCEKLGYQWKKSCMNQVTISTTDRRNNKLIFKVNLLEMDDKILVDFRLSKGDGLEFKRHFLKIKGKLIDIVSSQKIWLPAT

The next experiment concerns the target T4, DRAK1(h) (human, UniProt Q9UEE5 1-414, limits assumed).
T4 sequence (looked up): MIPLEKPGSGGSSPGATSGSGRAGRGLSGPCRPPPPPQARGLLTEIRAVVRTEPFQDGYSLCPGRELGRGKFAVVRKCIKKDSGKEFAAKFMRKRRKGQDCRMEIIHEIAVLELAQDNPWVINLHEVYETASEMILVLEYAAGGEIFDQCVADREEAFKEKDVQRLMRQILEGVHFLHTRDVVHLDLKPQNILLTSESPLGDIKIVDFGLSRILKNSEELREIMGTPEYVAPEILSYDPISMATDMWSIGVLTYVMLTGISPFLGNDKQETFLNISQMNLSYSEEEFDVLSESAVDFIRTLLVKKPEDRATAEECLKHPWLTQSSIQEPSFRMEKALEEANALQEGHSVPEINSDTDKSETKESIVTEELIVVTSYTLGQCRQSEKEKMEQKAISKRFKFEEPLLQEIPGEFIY

Flt4(h), sequence (P35916 800-1363 limits assumed): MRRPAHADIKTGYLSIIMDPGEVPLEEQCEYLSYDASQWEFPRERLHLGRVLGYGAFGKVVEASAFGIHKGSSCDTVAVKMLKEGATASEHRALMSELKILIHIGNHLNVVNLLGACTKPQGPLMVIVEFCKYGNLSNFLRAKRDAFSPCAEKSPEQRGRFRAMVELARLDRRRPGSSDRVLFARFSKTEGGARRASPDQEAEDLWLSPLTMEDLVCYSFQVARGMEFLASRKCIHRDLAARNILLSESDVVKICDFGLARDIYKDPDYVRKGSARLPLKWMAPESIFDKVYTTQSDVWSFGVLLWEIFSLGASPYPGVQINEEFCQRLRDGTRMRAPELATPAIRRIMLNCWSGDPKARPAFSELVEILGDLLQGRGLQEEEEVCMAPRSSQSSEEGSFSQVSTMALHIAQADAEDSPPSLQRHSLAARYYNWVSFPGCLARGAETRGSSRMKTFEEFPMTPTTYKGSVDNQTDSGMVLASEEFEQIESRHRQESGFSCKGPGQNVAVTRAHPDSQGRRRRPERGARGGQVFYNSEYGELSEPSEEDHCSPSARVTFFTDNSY
mTOR/FKBP12(h), sequence (P42345 1362-2549 limits assumed, chain 1 of 2): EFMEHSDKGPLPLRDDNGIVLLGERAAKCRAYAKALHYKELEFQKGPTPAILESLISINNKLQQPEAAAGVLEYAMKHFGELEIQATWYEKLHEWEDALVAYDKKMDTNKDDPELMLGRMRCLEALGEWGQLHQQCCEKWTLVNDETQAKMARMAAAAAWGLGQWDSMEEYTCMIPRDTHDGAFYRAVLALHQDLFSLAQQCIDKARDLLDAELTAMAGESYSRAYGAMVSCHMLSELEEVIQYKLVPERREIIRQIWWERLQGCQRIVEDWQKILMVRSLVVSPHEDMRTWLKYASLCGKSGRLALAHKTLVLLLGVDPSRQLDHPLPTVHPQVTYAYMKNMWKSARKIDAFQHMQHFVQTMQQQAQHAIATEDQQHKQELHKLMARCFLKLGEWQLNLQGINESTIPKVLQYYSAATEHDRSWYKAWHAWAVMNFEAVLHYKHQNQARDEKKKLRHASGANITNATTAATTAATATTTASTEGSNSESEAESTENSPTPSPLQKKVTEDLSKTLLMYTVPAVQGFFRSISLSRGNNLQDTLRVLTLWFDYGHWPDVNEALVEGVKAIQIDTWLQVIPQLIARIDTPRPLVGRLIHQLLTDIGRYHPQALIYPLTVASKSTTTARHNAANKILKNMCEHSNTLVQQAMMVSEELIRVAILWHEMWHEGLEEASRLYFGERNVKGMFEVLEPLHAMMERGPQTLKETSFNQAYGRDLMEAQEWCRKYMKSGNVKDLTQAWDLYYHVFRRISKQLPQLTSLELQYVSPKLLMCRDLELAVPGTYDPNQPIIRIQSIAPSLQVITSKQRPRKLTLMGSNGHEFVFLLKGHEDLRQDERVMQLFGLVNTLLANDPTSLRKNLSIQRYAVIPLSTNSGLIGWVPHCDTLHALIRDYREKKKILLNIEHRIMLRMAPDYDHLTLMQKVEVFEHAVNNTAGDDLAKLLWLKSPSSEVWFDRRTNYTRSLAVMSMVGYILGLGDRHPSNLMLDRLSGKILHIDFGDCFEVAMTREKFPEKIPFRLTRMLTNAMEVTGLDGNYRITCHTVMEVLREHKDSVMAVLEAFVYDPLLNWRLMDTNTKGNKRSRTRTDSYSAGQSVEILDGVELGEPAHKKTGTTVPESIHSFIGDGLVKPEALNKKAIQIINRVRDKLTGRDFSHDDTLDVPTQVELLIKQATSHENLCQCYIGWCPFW
mTOR/FKBP12(h), sequence (P62942 whole entry, chain 2 of 2): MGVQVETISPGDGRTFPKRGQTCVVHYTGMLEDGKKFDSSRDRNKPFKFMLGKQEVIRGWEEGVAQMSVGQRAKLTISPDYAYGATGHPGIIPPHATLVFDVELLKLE
mTOR(h), sequence (P42345 1362-2549 limits assumed): as the sequence (P42345 1362-2549 limits assumed, chain 1 of 2) above
PKCθ(h), sequence (Q04759 whole entry): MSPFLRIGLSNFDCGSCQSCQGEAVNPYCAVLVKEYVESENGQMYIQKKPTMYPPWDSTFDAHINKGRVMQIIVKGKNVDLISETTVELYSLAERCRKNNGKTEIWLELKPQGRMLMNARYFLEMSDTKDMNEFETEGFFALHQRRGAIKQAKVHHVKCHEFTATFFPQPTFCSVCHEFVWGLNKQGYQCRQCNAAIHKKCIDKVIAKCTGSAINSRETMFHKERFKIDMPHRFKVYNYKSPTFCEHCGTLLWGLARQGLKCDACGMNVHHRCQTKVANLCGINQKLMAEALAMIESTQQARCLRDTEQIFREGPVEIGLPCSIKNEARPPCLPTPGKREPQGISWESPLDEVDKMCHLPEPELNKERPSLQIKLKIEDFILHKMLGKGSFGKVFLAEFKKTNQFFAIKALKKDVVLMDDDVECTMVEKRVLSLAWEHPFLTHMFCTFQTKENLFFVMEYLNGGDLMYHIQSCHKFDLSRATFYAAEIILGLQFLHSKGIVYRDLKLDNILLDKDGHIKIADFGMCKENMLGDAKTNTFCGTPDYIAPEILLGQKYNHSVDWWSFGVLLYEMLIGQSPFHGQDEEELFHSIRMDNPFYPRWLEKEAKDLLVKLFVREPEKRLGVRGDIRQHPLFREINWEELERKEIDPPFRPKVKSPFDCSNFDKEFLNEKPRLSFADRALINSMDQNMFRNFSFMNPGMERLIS
Pim-1(h), sequence (P11309 whole entry): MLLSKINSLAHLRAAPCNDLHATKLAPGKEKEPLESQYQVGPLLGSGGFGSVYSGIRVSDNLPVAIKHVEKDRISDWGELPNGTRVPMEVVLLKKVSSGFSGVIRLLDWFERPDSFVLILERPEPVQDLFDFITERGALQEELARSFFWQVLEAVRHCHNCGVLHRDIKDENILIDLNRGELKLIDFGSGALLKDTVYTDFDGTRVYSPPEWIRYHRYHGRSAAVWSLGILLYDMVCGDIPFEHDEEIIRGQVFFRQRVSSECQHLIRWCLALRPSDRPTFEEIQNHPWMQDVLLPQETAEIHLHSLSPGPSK
CDK3/cyclinE(h), sequence (Q00526 whole entry, chain 1 of 2): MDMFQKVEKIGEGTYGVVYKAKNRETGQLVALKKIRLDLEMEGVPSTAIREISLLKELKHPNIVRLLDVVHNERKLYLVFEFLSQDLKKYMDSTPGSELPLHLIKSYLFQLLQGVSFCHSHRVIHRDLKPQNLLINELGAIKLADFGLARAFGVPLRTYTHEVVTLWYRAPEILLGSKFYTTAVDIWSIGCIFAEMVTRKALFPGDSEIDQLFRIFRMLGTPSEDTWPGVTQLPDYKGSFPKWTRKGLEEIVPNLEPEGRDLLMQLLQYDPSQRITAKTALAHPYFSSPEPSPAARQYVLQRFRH
CDK3/cyclinE(h), sequence (Q00526 whole entry, chain 2 of 2): as the sequence (Q00526 whole entry, chain 1 of 2) above
Fyn(h), sequence (P06241 whole entry): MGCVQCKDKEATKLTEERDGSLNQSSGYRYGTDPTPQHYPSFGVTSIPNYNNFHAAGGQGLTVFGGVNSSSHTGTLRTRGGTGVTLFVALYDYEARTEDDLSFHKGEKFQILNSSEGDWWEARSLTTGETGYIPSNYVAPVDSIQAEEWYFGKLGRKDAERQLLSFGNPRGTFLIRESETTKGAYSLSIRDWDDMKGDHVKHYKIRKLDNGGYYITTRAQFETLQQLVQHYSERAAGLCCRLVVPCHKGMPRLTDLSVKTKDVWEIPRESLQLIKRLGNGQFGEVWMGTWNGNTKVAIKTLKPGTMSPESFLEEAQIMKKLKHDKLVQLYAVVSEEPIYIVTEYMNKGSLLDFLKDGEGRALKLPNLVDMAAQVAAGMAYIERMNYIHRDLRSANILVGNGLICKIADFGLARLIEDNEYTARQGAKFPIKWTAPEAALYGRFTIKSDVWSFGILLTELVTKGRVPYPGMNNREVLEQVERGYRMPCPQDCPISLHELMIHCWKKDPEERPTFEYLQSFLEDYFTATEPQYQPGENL
Lyn(h), sequence (P07948 whole entry): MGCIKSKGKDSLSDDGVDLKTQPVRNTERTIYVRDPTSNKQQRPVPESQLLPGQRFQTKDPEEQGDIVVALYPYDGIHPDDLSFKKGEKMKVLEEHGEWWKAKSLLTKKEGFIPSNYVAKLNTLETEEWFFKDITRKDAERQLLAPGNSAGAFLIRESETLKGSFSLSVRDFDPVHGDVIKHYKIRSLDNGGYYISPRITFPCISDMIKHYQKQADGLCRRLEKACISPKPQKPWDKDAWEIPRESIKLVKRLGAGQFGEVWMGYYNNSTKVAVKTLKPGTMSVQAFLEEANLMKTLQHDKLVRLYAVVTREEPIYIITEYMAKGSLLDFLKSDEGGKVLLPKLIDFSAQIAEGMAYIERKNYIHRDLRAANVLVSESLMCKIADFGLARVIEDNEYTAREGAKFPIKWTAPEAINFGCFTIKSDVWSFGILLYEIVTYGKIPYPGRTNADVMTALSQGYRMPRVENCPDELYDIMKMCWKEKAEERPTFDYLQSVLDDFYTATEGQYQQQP

B1: MMI-0400 (peptide)
peptide: KAFAKLAARLYRKALARQLGVAA
For B1, the “% activity” value is 89% in the experiment with Flt4(h); 54% in the experiment with Fyn(h); 3% with Lyn(h); 93% with mTOR(h); 125% in the experiment with mTOR/FKBP12(h); 7% with Pim-1(h). Besides, the “% activity” value with PKCα(h) stood at 86%; in the experiment with PKCµ(h) it was 14%; in the experiment with PKCθ(h), 76%; with ULK2(h), 131%; with CDK3/cyclinE(h), 92%; with CHK1(h), 87%. In the experiment with DRAK1(h), the “% activity” value is 14%.

B2: MMI-0300 (peptide)
peptide: FAKLAARLYRKALARQLGVAA
As to B2, the “% activity” value turned out to be 83% with Flt4(h); 74% with Fyn(h); 69% with Lyn(h); 91% in the experiment with mTOR(h); 145% with mTOR/FKBP12(h); 8% with Pim-1(h). The “% activity” value with PKCα(h) is 89%; with PKCµ(h), 22%; in the experiment with PKCθ(h) it was 88%; in the experiment with ULK2(h), 122%; with CDK3/cyclinE(h), 94%; with CHK1(h) it was 91%. Further, in the experiment with DRAK1(h), the “% activity” value was 14%.
